Measurements reported in article PMC12084609, “Structural insights into small-molecule agonist recognition and activation of complement receptor C3aR” (The EMBO Journal, 2025).
Numbering of substitutions follows the chain as printed. Several values for one entry are separate records, joined by “and”; a condition that tells them apart may be missing. Equal entries are not always repeated.

Assays:
C3aR R161A = settings: quoted by Referee #2; ref https://doi.org/10.1038/s41589-023-01339-w; cited from earlier work
C3aR R161^ECL2A = target: T1, C3aR R161^ECL2A (Homo sapiens, UniProt Q16581, R161A); assay: GloSensor-based cAMP assay, C3aR mutant R161A; assay type: cell-based; settings: R161ECL2A, single replicates
T1 construct: expressed in transfected cells; host or cells: HEK293T
T1 sequence (Q16581 1-482 R161A): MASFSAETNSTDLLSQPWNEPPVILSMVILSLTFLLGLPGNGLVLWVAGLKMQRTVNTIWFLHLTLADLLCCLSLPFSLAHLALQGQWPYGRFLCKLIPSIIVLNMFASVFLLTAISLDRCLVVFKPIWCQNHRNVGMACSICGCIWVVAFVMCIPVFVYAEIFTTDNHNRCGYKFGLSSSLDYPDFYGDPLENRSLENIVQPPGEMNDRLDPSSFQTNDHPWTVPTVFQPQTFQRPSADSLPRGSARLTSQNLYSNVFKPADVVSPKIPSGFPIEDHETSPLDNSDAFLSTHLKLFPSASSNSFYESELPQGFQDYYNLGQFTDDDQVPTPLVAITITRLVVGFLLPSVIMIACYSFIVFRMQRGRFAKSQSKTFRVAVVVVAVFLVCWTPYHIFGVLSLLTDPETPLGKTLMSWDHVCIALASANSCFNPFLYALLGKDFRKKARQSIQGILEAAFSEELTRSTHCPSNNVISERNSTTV
Procedure: (§1) HEK293T cells were seeded on 6-well plates (NEST) and transfected with pGlosensor™-22F plasmids (Promega) and pcDNA3.1 plasmids encoding C3aR or its mutants an with N-terminal FLAG tag. After 48 h, cells were detached with Accutase solution (Sigma-Aldrich) and washed with PBS, and resuspended in assay buffer (CO2-independent medium with 0.5 mg mL^−1D-luciferin). 100,000–200,000 cells were seeded on 96-well white bottom plates (SPL) and incubated at 37 °C for 45 min followed by 45 min incubation at room temperature. After 90 min of incubation, basal luminescence signals were recorded. In total, 25 μl of test ligand with various concentrations and 1 μM Forskolin (Sigma-Aldrich) were treated to the cells and luminescence signals were measured by Tristar 2 LB 942 multimode reader (Berthold). […] Relative luminescence unit (%) was calculated with the signal of wells treated with vehicle as 0% and the signal of wells treated with 1 μM Forskolin as 100% (DiRaddo et al, [2014]). Nonlinear regression was performed using a three-parameter logistic equation.

C3aR R340^5.42A = target: T2, C3aR R340^5.42A (Homo sapiens, UniProt Q16581, R340A); assay: GloSensor-based cAMP assay, C3aR mutant R340A; assay type: cell-based; settings: for cAMP response (% Forskolin): R3405.42A, single replicates
T2 construct: expressed in transfected cells; host or cells: HEK293T
T2 sequence (Q16581 1-482 R340A): T1 sequence (Q16581 1-482 R161A) with A161R, R340A
Procedure: as §1

C3aR L82^2.64A = target: T3, C3aR L82^2.64A (Homo sapiens, UniProt Q16581, L82A); assay: GloSensor-based cAMP assay, C3aR mutant L82A; assay type: cell-based; settings: for cAMP response (% Forskolin): L822.64A, single replicates
T3 construct: expressed in transfected cells; host or cells: HEK293T
T3 sequence (Q16581 1-482 L82A): T1 sequence (Q16581 1-482 R161A) with L82A, A161R
Procedure: as §1

Substance: C3a: anaphylatoxin C3a, natural peptide ligand of C3aR (a 77-amino acid peptide), Sigma-Aldrich
- decrease of potency toward C3aR by R161A (C3aR R161A): ~ 1000 fold
- cAMP response (% Forskolin) (C3aR R161^ECL2A; Log[C3a (M)] -7): 95.22 % Forskolin and 113.23 % Forskolin and 84.95 % Forskolin
- cAMP response (% Forskolin) (C3aR R161^ECL2A; Log[C3a (M)] -8): 93.59 % Forskolin and 100.34 % Forskolin and 90.06 % Forskolin
- cAMP response (% Forskolin) (C3aR R161^ECL2A; Log[C3a (M)] -9): 101.94 % Forskolin and 107.61 % Forskolin and 95.04 % Forskolin
- cAMP response (% Forskolin) (C3aR R161^ECL2A; Log[C3a (M)] -10): 94.48 % Forskolin and 102.25 % Forskolin and 94.73 % Forskolin
- cAMP response (% Forskolin) (C3aR R161^ECL2A; Log[C3a (M)] -11): 103.03 % Forskolin and 121.75 % Forskolin and 96.66 % Forskolin
- cAMP response (% Forskolin) (C3aR R161^ECL2A; Log[C3a (M)] -12): 95.52 % Forskolin and 105.32 % Forskolin and 102.35 % Forskolin
- ΔpIC50 ± SE of Diff. (C3aR R340^5.42A; R340^5.42A relative to WT C3aR): -1.39 ± 0.06
- IC50 (C3aR R340^5.42A; R340^5.42A, dose-response plot, read-out: IC50): 47 nM
- pIC50 (Replicate) (C3aR R340^5.42A; R340^5.42A, individual replicates): 7.31 and 7.68 and 7.02 and 6.95
- pIC50 ± SEM (Mean) (C3aR R340^5.42A; R340^5.42A, mean of independent experiments): 7.21
- cAMP response (% Forskolin) (C3aR R340^5.42A; Log[C3a (M)] -7): 25.35 % Forskolin and 26.64 % Forskolin and 21.46 % Forskolin and 37.94 % Forskolin and 13.15 % Forskolin and 37.80 % Forskolin
- cAMP response (% Forskolin) (C3aR R340^5.42A; Log[C3a (M)] -8): 77.37 % Forskolin and 75.03 % Forskolin and 71.05 % Forskolin and 86.28 % Forskolin and 86.11 % Forskolin and 85.37 % Forskolin
- cAMP response (% Forskolin) (C3aR R340^5.42A; Log[C3a (M)] -9): 91.29 % Forskolin and 112.12 % Forskolin and 107.73 % Forskolin and 93.95 % Forskolin and 109.05 % Forskolin and 100.87 % Forskolin
- cAMP response (% Forskolin) (C3aR R340^5.42A; Log[C3a (M)] -10): 92.00 % Forskolin and 91.42 % Forskolin and 98.18 % Forskolin and 91.19 % Forskolin and 108.32 % Forskolin and 87.99 % Forskolin
- cAMP response (% Forskolin) (C3aR R340^5.42A; Log[C3a (M)] -11): 98.26 % Forskolin and 112.91 % Forskolin and 108.63 % Forskolin and 92.51 % Forskolin and 96.75 % Forskolin and 86.60 % Forskolin
- cAMP response (% Forskolin) (C3aR R340^5.42A; Log[C3a (M)] -12): 94.72 % Forskolin and 95.53 % Forskolin and 102.57 % Forskolin and 99.30 % Forskolin and 100.29 % Forskolin and 108.61 % Forskolin
- Mean Diff. of pIC50, WT vs. L82A (C3aR L82^2.64A; Dunnett's multiple comparisons test, WT minus mutant): -0.166
- ΔpIC50 ± SE of Diff. (C3aR L82^2.64A; L82^2.64A relative to WT C3aR): 0.17 ± 0.05
- IC50 (C3aR L82^2.64A; L82^2.64A, dose-response plot, read-out: IC50): 1.98 nM
- pIC50 (Replicate) (C3aR L82^2.64A; L82^2.64A, individual replicates): 8.88 and 8.82 and 8.71 and 8.44
- pIC50 ± SEM (Mean) (C3aR L82^2.64A; L82^2.64A, mean of independent experiments): 8.71 ± 0.10 and 8.71
- cAMP response (% Forskolin) (C3aR L82^2.64A; Log[C3a (M)] -7): 6.88 % Forskolin and 9.71 % Forskolin and 10.14 % Forskolin and 11.39 % Forskolin
- cAMP response (% Forskolin) (C3aR L82^2.64A; Log[C3a (M)] -8): 8.74 % Forskolin and 11.60 % Forskolin and 12.67 % Forskolin and 19.68 % Forskolin
- cAMP response (% Forskolin) (C3aR L82^2.64A; Log[C3a (M)] -9): 57.84 % Forskolin and 63.09 % Forskolin and 70.46 % Forskolin and 87.20 % Forskolin
- cAMP response (% Forskolin) (C3aR L82^2.64A; Log[C3a (M)] -10): 90.69 % Forskolin and 88.60 % Forskolin and 91.27 % Forskolin and 91.83 % Forskolin
- cAMP response (% Forskolin) (C3aR L82^2.64A; Log[C3a (M)] -11): 96.32 % Forskolin and 92.63 % Forskolin and 98.10 % Forskolin and 96.40 % Forskolin
- cAMP response (% Forskolin) (C3aR L82^2.64A; Log[C3a (M)] -12): 96.44 % Forskolin and 101.07 % Forskolin and 97.65 % Forskolin and 97.10 % Forskolin
